The test system of series [1] is MS2 coat protein. Description: apparent KD of MS2 coat protein, switch OFF state (with FMN for OFF switches, without FMN for ON switches); designed switch direction (-1 OFF switch, 1 ON switch): -1; higher = weaker reporter binding. The conditions noted are these: FMN input: 0 or 200 uM; Eterna round: R93 (includes R88 designs). The method in brief:
(§1)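 Apparent KD stands for the median, per design, of fits to normalised cluster binding curves. The curves came from titrating on-chip-transcribed RNA switches on Illumina sequencing clusters with SNAP-549-labelled MS2 coat protein, twofold from 0.7 or 1.5 nM to 3 µM. Buffer was 100 mM Tris-HCl pH 7.5, 80 mM KCl, 4 mM MgCl2, without or with constant ligand.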

Series [2] relates to MS2 coat protein. In words: apparent KD of MS2 coat protein, switch ON state; designed switch direction (-1 OFF switch, 1 ON switch): -1; higher = weaker reporter binding. Conditions: FMN input: 0 or 200 uM; Eterna round: R93 (includes R88 designs). The method in brief: as §1

“AGUUGGCGAGGAUAUACAUGAGGAUCACCCAUGUAAAAUAAAUAAAAAAUAAAAGGGAGUAGAAGGCGCUGACA [73%, Moding Norbert Elias, 16]”: the results for the “apparent KD of MS2 coat protein” value with MS2 coat protein [1] and with MS2 coat protein [2] were 53.4 nM and 41.9 nM, respectively.
Take “AGUUGGCGAGGAUAUACAUGAGGAUCACCCAUGUGAGAGAAAAAAGUGAAAAAGAAAAGUAGAAGGCGCUGACA [73%, Moding Norbert Elias, 3]”: the “apparent KD of MS2 coat protein” value in the series with MS2 coat protein [1] is 195 nM; in the series with MS2 coat protein [2], 47.9 nM.
Regarding “AGUUGGCGAGGAUAUACAUGAGGAUCACCCAUGUGAGAGAAAAAAGUGAGAAAGAAAAGUAGAAGGCGCUGACU [salish99-ex3-06]”, the “apparent KD of MS2 coat protein” value in the series with MS2 coat protein [1] was determined as 307 nM; with MS2 coat protein [2], 46.4 nM.
“AGUUGGCGAGGAUAUACAUGAGGAUCACCCAUGUGAGAGAAAUAAGUGAGAAAGAAAAGUAGAAGGCGCUAACA [JL Lego Mod 18]”: the “apparent KD of MS2 coat protein” value was found to be 164 nM in the series with MS2 coat protein [1] and 53.5 nM with MS2 coat protein [2].
For “AGUUGGCGAGGAUAUACAUGAGGAUCACCCAUGUGAGAGUAAGAAGUGAGAAAGAGAAGUAGAAGGCGCUGACA [Ruby 55]”, in that order: 220 nM and 46.5 nM.
Regarding “AUAAACAGAGGAUAUACGCGGAUUAUUGAAAUUAUUGAUUCACAUGAGGAUCACCCAUGUAGAAGGCUGGAAAA [LROPPY Exclusion 2 - v04_doubled Us]”, the “apparent KD of MS2 coat protein” value worked out at 124 nM in the series on MS2 coat protein [1] and 35.7 nM in the series on MS2 coat protein [2].
Take “AUAAACGGAGGAUAUACAUGAGGAUCACCCAUGUAAAUAAAUAGGAGAGCCACAAUAAGUAGAAGGUCGAAUAA [JR_Exc003_Sub010]”: the “apparent KD of MS2 coat protein” value in the series with MS2 coat protein [1] came to 32.4 nM; in the series with MS2 coat protein [2], 35.6 nM.
Regarding “AUAAAGUCAGGAUAUGUAAAAAUAACGAAAGUUAUAAAUAAACAGAAGGGACAUGAGGAUCACCCAUGUGGAAU [Meechl MS2 EX4 62% 3]”, the “apparent KD of MS2 coat protein” value came out at 75 nM with MS2 coat protein [1] and 54.2 nM in the series with MS2 coat protein [2].
For the sequence “AUAAUCCUAGGAUAUACAUGGAUAUACAUUCAUGUGGACCUACAUGAGGAUCACCCAUGUAGAAGGAGGAUGAA [Mat - Same state - Mayanna Mod - D138]”, the “apparent KD of MS2 coat protein” value with MS2 coat protein [1] stood at 39.5 nM; in the series with MS2 coat protein [2] it was 35 nM.
Take “AUAAUGCGAGGAUAUACAUGAGGAUCACCCAUGUAAAUAAAUAGGAGAGCCACAUUAAGUAGAAGGUGCAUUAA [JR_Exc003_Sub501]”: the “apparent KD of MS2 coat protein” value in the series on MS2 coat protein [1] was determined as 84.7 nM; with MS2 coat protein [2], 32.8 nM.
Consider “AUAGGCCUAGGAUAUACAUGAGGAUCACCCAUGUUAACACUUCAAUCAAGUUAAUAGUGUAGAAGGAGGAAUAA [JR_Exc003_Sub308]”, for which the “apparent KD of MS2 coat protein” value in the series on MS2 coat protein [1] came out at 31.5 nM; in the series on MS2 coat protein [2], 29.3 nM.
Taken in the same sequence, the figures for “AUAGUACAUGAGGAUCACCCAUGUCAGGAUAUUGGAUAUGACAUAAAAAAAAUGUUAACGAGAAGGGACUAUAA [EX1 Malc#16]” were 27.7 nM and 29.2 nM.
Taken in the same sequence, the figures for “AUAUAACAUGAGGAUCACCCAUGUCAGGAUAUCGAACCCAACACAACCAAAAUGUCGGCGAGAAGGGACAAAAA [Default title]” were 22.6 nM and 27.5 nM.
Regarding “AUCAUGUAAGGAUAUGUAAGAAAAGAAAAGAAAGAAAAGAAACAGAAGGUACAUGAGGAUCACCCAUGUAAGAA [EteRNA is fun!]”, the “apparent KD of MS2 coat protein” value in the series with MS2 coat protein [1] came to 34.5 nM; in the series with MS2 coat protein [2], 26.5 nM.
Taken in the same sequence, the figures for “AUCAUGUAAGGAUAUUCAAGAAAAGAAAAGAAAGAAAAGAAGAAGAAGGUACAUGAGGAUCACCCAUGUAAGAA [EteRNA is fun!]” were 64.2 nM and 42.5 nM.
For the sequence “AUGUACCUAGGAUAUACAUGAGGAUCACCCAUGUUCCGGGAGCAAUCAAGUUAAUAUUGUAGAAGGAGGUGAAA [JR_Exc003_Sub314]”, the figures for the “apparent KD of MS2 coat protein” value in the series on MS2 coat protein [1] and with MS2 coat protein [2] were 28.4 nM and 16 nM, respectively.
Taken in the same sequence, the figures for “AUGUAGGUAGGAUAUGCAUAGAUACAGAUUCAUGUGGAACUACAUGAGGAUCACCCAUGUAGAAGGACCUAAAA [Mat - Same state - Mayanna Mod - D126]” were 30 nM and 20.2 nM.
As to “CACGUACAUGAGGAUCACCCAUGUUAGGAUAUGCCGGGUAAGAGAAAACUAAAAAUCCGCAGAAGGGACGAAAC [Bilbo Confounded 15 - Jieux - Exclusion 1]”, the “apparent KD of MS2 coat protein” value with MS2 coat protein [1] stood at 33.8 nM; in the series on MS2 coat protein [2] it was 32 nM.
Consider “CAGUACUGAGGAUAUACAUGAGGAUCACCCAUGUGAAAAAGCUACGAAAGUAGCAAAUGUAGAAGGCAGUACUG [Ex3: 806]”, for which the “apparent KD of MS2 coat protein” value in the series with MS2 coat protein [1] was found to be 273 nM; in the series on MS2 coat protein [2], 28.9 nM.
For “CAUAGGCGAGGAUAUACAUGAGGAUCACCCAUGUAAGGAAACCUGGCAGACUCAGAAUGUAGAAGGCGCACUGA [Ex3_Neo]”, in that order: 32.5 nM and 17.1 nM.
For “CCCAUGUCAGGAUAUCAGUAGUAAAAAAAAAAAAUUACUACUGAGAAGGGACAUGAGGAUCACCCAUGUCACUU [EX4 320: Super Stable 20]”, in that order: 53.2 nM and 74.9 nM.
For the sequence “CGGAGGAAAGGAUAUACACAAUAAAAGAAGUGAUCCUUGAGACAUGAGGAUCACCCAUGUAGAAGGUUCACUGA [Zaza]”, the figures for the “apparent KD of MS2 coat protein” value in the series on MS2 coat protein [1] and with MS2 coat protein [2] were 15.9 nM and 21.9 nM, respectively.
Taken in the same sequence, the figures for “CGUUGGCGAGGAUAUACAUGAGGAUCACCCAUGUGAGAGAAAAAAGUGAGAAAGAAAAGUAGAAGGCGCUGACU [salish99-ex3-11]” were 132 nM and 43.6 nM.
Taken in the same sequence, the figures for “CUAAAGCGAGGAUAUACAAUAAAAGGGAAUAAGGGAAAAAAACAUGAGGAUCACCCAUGUAGAAGGCGCCGAAA [Ex 2 #1]” were 26.5 nM and 25.6 nM.
As for “CUCAAGUAAGGAUAUACAAGAAAAGAAGAGAAAGAAAAGAAGUAGAAGGUACAUGAGGAUCACCCAUGUAAGAA [EteRNA is fun!]”, the “apparent KD of MS2 coat protein” value in the series on MS2 coat protein [1] amounted to 22.2 nM; with MS2 coat protein [2], 26.7 nM.
For “CUCAAGUAAGGAUAUCAAAGAAAAGAAGAGAAAGAAAAGAAUGAGAAGGUACAUGAGGAUCACCCAUGUAAGAA [EteRNA is fun!]”, in that order: 23 nM and 35.2 nM.
“CUCAAGUGAGGAUAUCAGUAGUAAAAAAAUAAAAUUACUACUGAGAAGGCACAUGAGGAUCACCCAUGUGCCAA [EX4 335: Super Stable 35]”: the “apparent KD of MS2 coat protein” value with MS2 coat protein [1] stood at 15.2 nM; in the series on MS2 coat protein [2], 14.7 nM.
Regarding “CUCAAGUUAGGAUAUGGAAGAAAAGAAGAGAAAGAAAAGAACCAGAAGGAACAUGAGGAUCACCCAUGUAAGAA [EteRNA is fun!]”, the entries for the “apparent KD of MS2 coat protein” value with MS2 coat protein [1] and with MS2 coat protein [2] were 62.7 nM and 58.1 nM, respectively.
As for “CUCGUGUUAGGAUAUGGAUAGCCGUUUGACGAGCGAGGGCACUAGAAGGAACAUGAGGAUCACCCAUGUAAAAA [Velema]”, the “apparent KD of MS2 coat protein” value stood at 28.1 nM in the series with MS2 coat protein [1] and 29.4 nM in the series with MS2 coat protein [2].
For “CUCUAGUCAGGAUAUGCAUGAAAUGAAGUGAAAGAAAAGAAGCAGAAGGGACAUGAGGAUCACCCAUGUUAGAA [EteRNA is fun!]”, in that order: 38.3 nM and 29.6 nM.
In the case of “CUCUAGUGAGGAUAUCGAAGAAAAGAAGAGAAAGAAAAGAACGAGAAGGCACAUGAGGAUCACCCAUGUAAGAA [EteRNA is fun!]”, the “apparent KD of MS2 coat protein” value in the series with MS2 coat protein [1] was 49 nM; with MS2 coat protein [2], 23.6 nM.
For the sequence “CUCUAGUUAGGAUAUCCAAGAAAAGAAAAGAAAGAAAAGAAGGAGAAGGAACAUGAGGAUCACCCAUGUAAGAA [EteRNA is fun!]”, the results for the “apparent KD of MS2 coat protein” value in the series with MS2 coat protein [1] and in the series with MS2 coat protein [2] were 29.4 nM and 27.8 nM, respectively.
As for “CUCUAGUUAGGAUAUGCAAGAAAAGAAGAGAAAGAAAAGAAGCAGAAGGAACAUGAGGAUCACCCAUGUAAGAA [EteRNA is fun!]”, the “apparent KD of MS2 coat protein” value with MS2 coat protein [1] came out at 20.4 nM; in the series on MS2 coat protein [2], 22.7 nM.
Turning to “CUCUUGUCAGGAUAUCAAAGAAAAGAAAAGAAAGAAAAGAAUGAGAAGGGACAUGAGGAUCACCCAUGUAAGAA [EteRNA is fun!]”, the “apparent KD of MS2 coat protein” value with MS2 coat protein [1] worked out at 34.8 nM; in the series with MS2 coat protein [2], 32.1 nM.
With “CUCUUGUGAGGAUAUCCAAGAAAAGAAAAGAAAGAAAAGAAGGAGAAGGCACAUGAGGAUCACCCAUGUAAGAA [EteRNA is fun!]”, the “apparent KD of MS2 coat protein” value in the series on MS2 coat protein [1] came out at 38.9 nM; in the series on MS2 coat protein [2] it was 38.6 nM.
Turning to “CUCUUGUGAGGAUAUCUAAGAAAAGAAGAGAAAGAAAAGAAAGAGAAGGCACAUGAGGAUCACCCAUGUAAGAA [EteRNA is fun!]”, the “apparent KD of MS2 coat protein” value in the series with MS2 coat protein [1] amounted to 56.1 nM; with MS2 coat protein [2] it was 29 nM.
On to “CUCUUGUGAGGAUAUUCAAGAAAAGAAGAGAAAGAAAAGAAGAAGAAGGCACAUGAGGAUCACCCAUGUAAGAA [EteRNA is fun!]”, for which the results for the “apparent KD of MS2 coat protein” value in the series on MS2 coat protein [1] and in the series with MS2 coat protein [2] were 30.8 nM and 25 nM, respectively.
For “CUUAUGUGAGGAUAUGGUGUUGGCCACAGGGAAAAGAUCCUCCAGAAGGCACAUGAGGAUCACCCAUGUAGUGA [Jolly's Folly 29 - Jieux - Exclusion 4]”, in that order: 160 nM and 69 nM.
As to “GAAAAACAUGAGGAUCACCCAUGUAAGGAUAUGCUAAAAAACGCAAAAAAAGCGAAUAGCAGAAGGUACAAAAG [Mat - Exclusion 1 - Eli mod - D82]”, the “apparent KD of MS2 coat protein” value amounted to 78.1 nM in the series on MS2 coat protein [1] and 22.3 nM with MS2 coat protein [2].
“GAAAAACAUGAGGAUCACCCAUGUCAGGAUAUACAAAAUAAAAUAAAAAUAAAAUAAAGUAGAAGGGACAAAAG [Mat - Same state - Mayanna Mod - D107]”: the “apparent KD of MS2 coat protein” value in the series with MS2 coat protein [1] is 49 nM; in the series with MS2 coat protein [2], 36.7 nM.

These data come from the supplement of paper PMC9170038.
